From publication PMC4592971

Target: full length RhoA (Q63L) as it stands in the constitutively GTP-loaded DORA-RhoA biosensor (UniProt P61586)
Test: FRET or BRET; FRET inside the single-chain DORA-RhoA biosensor (CFP on RhoA, YFP on the PKN1 domain) in living HeLa cells; single cell emission spectra and frequency domain FLIM of the donor (75.1 MHz)

Chain of UniProt P61586 (P61586 whole entry Q63L, the tested form may be a part): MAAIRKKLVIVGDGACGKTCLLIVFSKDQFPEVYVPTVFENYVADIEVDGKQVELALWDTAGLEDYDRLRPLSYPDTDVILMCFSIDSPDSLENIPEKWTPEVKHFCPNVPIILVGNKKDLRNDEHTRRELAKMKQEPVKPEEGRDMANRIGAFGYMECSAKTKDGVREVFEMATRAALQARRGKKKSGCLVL

How did the median donor fluorescence lifetime (FLIM) turn out when “Rho binding domain of PKN1 (cpPKN) as it stands in the DORA-RhoA biosensor (domain or fragment)” was run?
The median donor fluorescence lifetime (FLIM) was 2.4 ns.
